# Data taken from patent publication US20050095678A1.
# Biological target: rat α1B+β1b calcium channel (N-type calcium channel α1B subunit coexpressed with β1b subunit) (rat) (UniProt Q02294)
# Test: cell-based or functional assay
# Sequence of rat α1B+β1b calcium channel (N-type calcium channel α1B subunit coexpressed with β1b subunit) (rat) (Q02294 whole entry, chain 1 of 2): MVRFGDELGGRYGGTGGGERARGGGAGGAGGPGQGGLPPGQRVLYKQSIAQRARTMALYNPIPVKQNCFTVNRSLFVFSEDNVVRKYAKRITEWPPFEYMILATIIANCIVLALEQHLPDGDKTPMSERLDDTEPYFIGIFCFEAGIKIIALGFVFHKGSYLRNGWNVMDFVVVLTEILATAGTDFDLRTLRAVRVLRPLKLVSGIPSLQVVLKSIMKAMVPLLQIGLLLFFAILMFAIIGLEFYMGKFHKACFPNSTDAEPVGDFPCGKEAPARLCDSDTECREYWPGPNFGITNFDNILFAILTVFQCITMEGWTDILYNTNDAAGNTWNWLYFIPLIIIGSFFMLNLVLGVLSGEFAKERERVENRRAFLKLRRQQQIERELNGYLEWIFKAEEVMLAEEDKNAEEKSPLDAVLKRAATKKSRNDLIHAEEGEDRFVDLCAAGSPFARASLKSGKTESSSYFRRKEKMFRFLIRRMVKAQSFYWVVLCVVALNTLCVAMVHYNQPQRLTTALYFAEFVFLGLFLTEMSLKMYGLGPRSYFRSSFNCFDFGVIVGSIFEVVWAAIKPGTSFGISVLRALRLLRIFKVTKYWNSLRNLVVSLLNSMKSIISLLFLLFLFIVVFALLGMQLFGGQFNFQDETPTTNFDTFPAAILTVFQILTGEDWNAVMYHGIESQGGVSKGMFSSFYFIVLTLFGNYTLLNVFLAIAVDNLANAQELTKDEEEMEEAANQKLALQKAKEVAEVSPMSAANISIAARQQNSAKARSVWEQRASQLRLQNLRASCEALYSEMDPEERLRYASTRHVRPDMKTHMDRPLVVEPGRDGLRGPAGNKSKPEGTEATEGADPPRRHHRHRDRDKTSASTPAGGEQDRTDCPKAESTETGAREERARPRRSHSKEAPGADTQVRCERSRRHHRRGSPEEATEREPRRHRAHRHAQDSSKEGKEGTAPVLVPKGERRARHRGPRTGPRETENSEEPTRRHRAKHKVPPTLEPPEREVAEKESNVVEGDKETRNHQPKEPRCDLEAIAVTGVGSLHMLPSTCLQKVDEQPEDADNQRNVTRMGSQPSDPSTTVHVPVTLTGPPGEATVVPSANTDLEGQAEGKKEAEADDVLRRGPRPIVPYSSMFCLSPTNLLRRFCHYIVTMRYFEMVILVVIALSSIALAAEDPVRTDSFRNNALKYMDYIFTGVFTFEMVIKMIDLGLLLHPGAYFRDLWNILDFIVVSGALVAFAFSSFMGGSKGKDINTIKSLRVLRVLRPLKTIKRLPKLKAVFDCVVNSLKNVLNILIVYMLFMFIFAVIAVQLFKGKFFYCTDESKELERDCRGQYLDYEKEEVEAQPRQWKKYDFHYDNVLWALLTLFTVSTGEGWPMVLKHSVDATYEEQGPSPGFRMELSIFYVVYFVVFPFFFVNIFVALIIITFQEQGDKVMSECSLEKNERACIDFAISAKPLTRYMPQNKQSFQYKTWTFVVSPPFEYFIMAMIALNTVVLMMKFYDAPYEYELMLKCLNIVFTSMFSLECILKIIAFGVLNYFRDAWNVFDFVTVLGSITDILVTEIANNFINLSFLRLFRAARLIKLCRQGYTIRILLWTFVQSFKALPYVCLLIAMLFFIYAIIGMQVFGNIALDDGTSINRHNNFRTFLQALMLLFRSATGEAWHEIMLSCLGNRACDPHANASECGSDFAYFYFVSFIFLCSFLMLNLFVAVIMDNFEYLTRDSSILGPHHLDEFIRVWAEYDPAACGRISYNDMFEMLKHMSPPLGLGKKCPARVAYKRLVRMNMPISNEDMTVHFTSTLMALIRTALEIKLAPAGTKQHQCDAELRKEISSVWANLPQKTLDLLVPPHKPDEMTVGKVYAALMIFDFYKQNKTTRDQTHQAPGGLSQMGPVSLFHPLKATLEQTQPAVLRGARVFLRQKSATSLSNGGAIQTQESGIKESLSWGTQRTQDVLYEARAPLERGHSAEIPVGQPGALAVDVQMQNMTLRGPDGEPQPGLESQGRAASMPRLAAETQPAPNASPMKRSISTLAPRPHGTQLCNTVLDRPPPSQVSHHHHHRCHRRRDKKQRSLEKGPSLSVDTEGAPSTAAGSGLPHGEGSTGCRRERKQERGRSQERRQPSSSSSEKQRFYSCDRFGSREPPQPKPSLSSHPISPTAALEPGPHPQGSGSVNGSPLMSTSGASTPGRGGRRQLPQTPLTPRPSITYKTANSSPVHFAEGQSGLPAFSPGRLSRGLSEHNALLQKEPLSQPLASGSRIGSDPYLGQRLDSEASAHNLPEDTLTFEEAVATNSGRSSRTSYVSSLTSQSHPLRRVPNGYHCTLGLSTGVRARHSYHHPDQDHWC
# Sequence of rat α1B+β1b calcium channel (N-type calcium channel α1B subunit coexpressed with β1b subunit) (rat) (P54283 whole entry, chain 2 of 2, further chain): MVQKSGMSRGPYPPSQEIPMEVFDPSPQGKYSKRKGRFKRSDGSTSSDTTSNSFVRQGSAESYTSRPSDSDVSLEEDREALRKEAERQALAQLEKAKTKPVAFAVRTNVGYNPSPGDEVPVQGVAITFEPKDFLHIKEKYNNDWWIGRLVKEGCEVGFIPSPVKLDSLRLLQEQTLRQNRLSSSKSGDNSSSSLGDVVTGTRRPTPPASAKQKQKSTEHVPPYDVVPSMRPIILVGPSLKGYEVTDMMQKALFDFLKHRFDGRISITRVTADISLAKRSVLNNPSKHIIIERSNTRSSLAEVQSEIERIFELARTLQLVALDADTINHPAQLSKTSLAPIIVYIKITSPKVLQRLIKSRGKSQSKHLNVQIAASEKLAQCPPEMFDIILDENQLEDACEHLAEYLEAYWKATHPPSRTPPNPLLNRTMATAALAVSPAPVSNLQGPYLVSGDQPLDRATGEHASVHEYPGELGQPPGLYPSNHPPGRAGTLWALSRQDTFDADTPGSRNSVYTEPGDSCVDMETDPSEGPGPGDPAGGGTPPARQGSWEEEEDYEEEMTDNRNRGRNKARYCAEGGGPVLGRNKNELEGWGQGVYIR
substance,measurement,value
rat brain α2δ-2 calcium channel subunit (from UniProt Q8CFG6 19-1157),"average current density (Ipeak/cell capacitance), whole-cell patch clamp, fold increase on coexpression",4 fold
